Sequences and labels used below:
B1: Retinoic acid receptor RXR-alpha, residues 132 to 208; numbered along this chain, P19793 (parent)
chain: KHICAICGDRSSGKHYGVYSCEGCKGFFKRTVRKDLTYTCRDNKDCLIDKRQRNRCQYCRYQKCLAMGMKREAVQEE

± gives the uncertainty stated by the source.

The variants in this data set derive from B1. Put plainly: abundance fitness (aPCA) (normalised: wild type 0, dead -1); higher = more abundant; growth selection in yeast, the domain comes from the species named. To be noted: Homo sapiens.
In the case of KHICAICGDRASGKHYGVYSCEGCKGFFKRTVRKDLTYTCRDNKDCLIDKRQRNRCQYCRYQKCLAMGMKREAVQEE [S11A], the abundance fitness is -0.054 ± 0.029.
In the case of KHICAICGDRESGKHYGVYSCEGCKGFFKRTVRKDLTYTCRDNKDCLIDKRQRNRCQYCRYQKCLAMGMKREAVQEE [S11E], the abundance fitness is -0.072 ± 0.035.
As to KHICAICGDRCSGKHYGVYSCEGCKGFFKRTVRKDLTYTCRDNKDCLIDKRQRNRCQYCRYQKCLAMGMKREAVQEE [S11C], the abundance fitness is -0.015 ± 0.032.
The figure for KHICAICGDRFSGKHYGVYSCEGCKGFFKRTVRKDLTYTCRDNKDCLIDKRQRNRCQYCRYQKCLAMGMKREAVQEE [S11F] is -0.087 ± 0.031; for KHICAICGDRDSGKHYGVYSCEGCKGFFKRTVRKDLTYTCRDNKDCLIDKRQRNRCQYCRYQKCLAMGMKREAVQEE [S11D] it is -0.014 ± 0.036; for KHICAICGDHSSGKHYGVYSCEGCKGFFKRTVRKDLTYTCRDNKDCLIDKRQRNRCQYCRYQKCLAMGMKREAVQEE [R10H] it is -0.051 ± 0.03.
KHICAICGDNSSGKHYGVYSCEGCKGFFKRTVRKDLTYTCRDNKDCLIDKRQRNRCQYCRYQKCLAMGMKREAVQEE [R10N]: the abundance fitness was -0.024 ± 0.031.
As to KHICAICGDDSSGKHYGVYSCEGCKGFFKRTVRKDLTYTCRDNKDCLIDKRQRNRCQYCRYQKCLAMGMKREAVQEE [R10D], the abundance fitness was -0.047 ± 0.034.
For KHICAICGDWSSGKHYGVYSCEGCKGFFKRTVRKDLTYTCRDNKDCLIDKRQRNRCQYCRYQKCLAMGMKREAVQEE [R10W] the value was -0.044 ± 0.035.
For KHICAICGDSSSGKHYGVYSCEGCKGFFKRTVRKDLTYTCRDNKDCLIDKRQRNRCQYCRYQKCLAMGMKREAVQEE [R10S] the value was -0.046 ± 0.025; for KHICAICGDESSGKHYGVYSCEGCKGFFKRTVRKDLTYTCRDNKDCLIDKRQRNRCQYCRYQKCLAMGMKREAVQEE [R10E], -0.059 ± 0.034.
For KHICAICGDGSSGKHYGVYSCEGCKGFFKRTVRKDLTYTCRDNKDCLIDKRQRNRCQYCRYQKCLAMGMKREAVQEE [R10G] the value was -0.072 ± 0.026; for KHICAICGDLSSGKHYGVYSCEGCKGFFKRTVRKDLTYTCRDNKDCLIDKRQRNRCQYCRYQKCLAMGMKREAVQEE [R10L], -0.131 ± 0.024.
With KHICAICGDKSSGKHYGVYSCEGCKGFFKRTVRKDLTYTCRDNKDCLIDKRQRNRCQYCRYQKCLAMGMKREAVQEE [R10K], the abundance fitness was -0.025 ± 0.033.
For KHICAICGDFSSGKHYGVYSCEGCKGFFKRTVRKDLTYTCRDNKDCLIDKRQRNRCQYCRYQKCLAMGMKREAVQEE [R10F] the value was -0.064 ± 0.031.
For KHICAICGDMSSGKHYGVYSCEGCKGFFKRTVRKDLTYTCRDNKDCLIDKRQRNRCQYCRYQKCLAMGMKREAVQEE [R10M] the value was -0.099 ± 0.034; for KHICAICGDISSGKHYGVYSCEGCKGFFKRTVRKDLTYTCRDNKDCLIDKRQRNRCQYCRYQKCLAMGMKREAVQEE [R10I], -0.021 ± 0.031.
For KHICAICGDCSSGKHYGVYSCEGCKGFFKRTVRKDLTYTCRDNKDCLIDKRQRNRCQYCRYQKCLAMGMKREAVQEE [R10C], the abundance fitness was -0.053 ± 0.035.
For the variant KHICAICGDTSSGKHYGVYSCEGCKGFFKRTVRKDLTYTCRDNKDCLIDKRQRNRCQYCRYQKCLAMGMKREAVQEE [R10T], the abundance fitness is -0.024 ± 0.026.
The figure for KHICAICGDVSSGKHYGVYSCEGCKGFFKRTVRKDLTYTCRDNKDCLIDKRQRNRCQYCRYQKCLAMGMKREAVQEE [R10V] is -0.199 ± 0.028; for KHICAICGDASSGKHYGVYSCEGCKGFFKRTVRKDLTYTCRDNKDCLIDKRQRNRCQYCRYQKCLAMGMKREAVQEE [R10A] it is -0.139 ± 0.028.
The figure for KHICAICGDYSSGKHYGVYSCEGCKGFFKRTVRKDLTYTCRDNKDCLIDKRQRNRCQYCRYQKCLAMGMKREAVQEE [R10Y] is -0.028 ± 0.029; for KHICAICGPRSSGKHYGVYSCEGCKGFFKRTVRKDLTYTCRDNKDCLIDKRQRNRCQYCRYQKCLAMGMKREAVQEE [D9P] it is -0.662 ± 0.054.
The figure for KHICAICGKRSSGKHYGVYSCEGCKGFFKRTVRKDLTYTCRDNKDCLIDKRQRNRCQYCRYQKCLAMGMKREAVQEE [D9K] is 0.03 ± 0.044.
Consider KHICAICGLRSSGKHYGVYSCEGCKGFFKRTVRKDLTYTCRDNKDCLIDKRQRNRCQYCRYQKCLAMGMKREAVQEE [D9L], for which the abundance fitness was -0.708 ± 0.045.
With KHICAICGHRSSGKHYGVYSCEGCKGFFKRTVRKDLTYTCRDNKDCLIDKRQRNRCQYCRYQKCLAMGMKREAVQEE [D9H], the abundance fitness is -0.214 ± 0.034.
Regarding KHICAICGVRSSGKHYGVYSCEGCKGFFKRTVRKDLTYTCRDNKDCLIDKRQRNRCQYCRYQKCLAMGMKREAVQEE [D9V], the abundance fitness is -0.424 ± 0.044.
On to KHICAICGSRSSGKHYGVYSCEGCKGFFKRTVRKDLTYTCRDNKDCLIDKRQRNRCQYCRYQKCLAMGMKREAVQEE [D9S], for which the abundance fitness is -0.137 ± 0.028.
For the variant KHICAICGMRSSGKHYGVYSCEGCKGFFKRTVRKDLTYTCRDNKDCLIDKRQRNRCQYCRYQKCLAMGMKREAVQEE [D9M], the abundance fitness is -0.354 ± 0.051.
For KHICAICGRRSSGKHYGVYSCEGCKGFFKRTVRKDLTYTCRDNKDCLIDKRQRNRCQYCRYQKCLAMGMKREAVQEE [D9R] the value was -0.243 ± 0.032; for KHICAICGTRSSGKHYGVYSCEGCKGFFKRTVRKDLTYTCRDNKDCLIDKRQRNRCQYCRYQKCLAMGMKREAVQEE [D9T], -0.089 ± 0.031; for KHICAICGQRSSGKHYGVYSCEGCKGFFKRTVRKDLTYTCRDNKDCLIDKRQRNRCQYCRYQKCLAMGMKREAVQEE [D9Q], 0.033 ± 0.045.
In the case of KHICAICGIRSSGKHYGVYSCEGCKGFFKRTVRKDLTYTCRDNKDCLIDKRQRNRCQYCRYQKCLAMGMKREAVQEE [D9I], the abundance fitness is -0.455 ± 0.04.
For KHICAICGWRSSGKHYGVYSCEGCKGFFKRTVRKDLTYTCRDNKDCLIDKRQRNRCQYCRYQKCLAMGMKREAVQEE [D9W] the value was -0.141 ± 0.054; for KHICAICGNRSSGKHYGVYSCEGCKGFFKRTVRKDLTYTCRDNKDCLIDKRQRNRCQYCRYQKCLAMGMKREAVQEE [D9N], -0.05 ± 0.033; for KHICAICGGRSSGKHYGVYSCEGCKGFFKRTVRKDLTYTCRDNKDCLIDKRQRNRCQYCRYQKCLAMGMKREAVQEE [D9G], -0.166 ± 0.039.
